# Test results as given in the RNAGym collection of RNA variant scans (doi:10.7554/elife.80360).
# B1: HDV Ribozyme (parent)
# chain: GGCCGGCAUGGUCCCAGCCUCCUCGCUGGCGCCGGCUGGGCAACAUUCCGAGGGGACCGUCCCCUCGGUAAUGGCGAAUGGGACCCA
# Variants of: B1
# Test: self-cleavage, relative activity (ratio to wild type); higher = more cleavage; co-transcriptional
row,Variant,self-cleavage
1,GGCCGGCAUGGUCCCAGCCUCCUCGCUGGCGCCGGCUGGGCGACAAUCCGAGGGGACCGUCCCCUCGGUAAUGGCGAAUGGGACCCA [A42G U46A],0.554
2,GGCCGGCAUGGUCCCAGCCUCCUCGCUGGCGCCGGCUGGGCGACAUCCCGAGGGGACCGUCCCCUCGGUAAUGGCGAAUGGGACCCA [A42G U47C],0.532
3,GGCCGGCAUGGUCCCAGCCUCCUCGCUGGCGCCGGCUGGGCGACAUUCCGAGGGGACCGUCCCCUCGGUAAAGGCGAAUGGGACCCA [A42G U72A],0.369
4,GGCCGGCAUGGUCCCAGCCUCCUCGCUGGCGCCGGCUGGGCUACAUUCCGCGGGGACCGUCCCCUCGGUAAUGGCGAAUGGGACCCA [A42U A51C],0.665
5,GGCCGGCAUGGUCCCAGCCUCCUCGCUGGCGCCGGCUGGGCUACAUUCCGAGGGGCCCGUCCCCUCGGUAAUGGCGAAUGGGACCCA [A42U A56C],0.629
6,GGCCGGCAUGGUCCCAGCCUCCUCGCUGGCGCCGGCUGGGCUACAUUCCGAGGGGUCCGUCCCCUCGGUAAUGGCGAAUGGGACCCA [A42U A56U],0.577
7,GGCCGGCAUGGUCCCAGCCUCCUCGCUGGCGCCGGCUGGGCUACAUUCCGAGGGGACCGUCCCCUCGGUUAUGGCGAAUGGGACCCA [A42U A70U],0.312
8,GGCCGGCAUGGUCCCAGCCUCCUCGCUGGCGCCGGCUGGGCUACAUUCCGAGGGGACCGUCCCCUCGGUAUUGGCGAAUGGGACCCA [A42U A71U],0.369
9,GGCCGGCAUGGUCCCAGCCUCCUCGCUGGCGCCGGCUGGGCUACAUUCCGAGGGGACCGUCCCCUCGGUAAUGGCGACUGGGACCCA [A42U A78C],0.169
10,GGCCGGCAUGGUCCCAGCCUCCUCGCUGGCGCCGGCUGGGCUACAUUCCGAGGGGACCGUCCCCUCGGUAAUGGCGAUUGGGACCCA [A42U A78U],0.284
11,GGCCGGCAUGGUCCCAGCCUCCUCGCUGGCGCCGGCUGGGCUACAUUCCGAGGGGACCGUCCCCUCGGUAAUGGCGAAUGGGACCCC [A42U A87C],0.533
12,GGCCGGCAUGGUCCCAGCCUCCUCGCUGGCGCCGGCUGGGCUAUAUUCCGAGGGGACCGUCCCCUCGGUAAUGGCGAAUGGGACCCA [A42U C44U],0.674
13,GGCCGGCAUGGUCCCAGCCUCCUCGCUGGCGCCGGCUGGGCUACAUUCCGAGGGGAACGUCCCCUCGGUAAUGGCGAAUGGGACCCA [A42U C57A],0.575
14,GGCCGGCAUGGUCCCAGCCUCCUCGCUGGCGCCGGCUGGGCUACAUUCCGAGGGGACCGUCUCCUCGGUAAUGGCGAAUGGGACCCA [A42U C62U],0.742
15,GGCCGGCAUGGUCCCAGCCUCCUCGCUGGCGCCGGCUGGGCUACAUUCCGAGGGGACCGUCCACUCGGUAAUGGCGAAUGGGACCCA [A42U C63A],0.325
16,GGCCGGCAUGGUCCCAGCCUCCUCGCUGGCGCCGGCUGGGCUACAUUCCGAGGGGACCGUCCCGUCGGUAAUGGCGAAUGGGACCCA [A42U C64G],0.574
17,GGCCGGCAUGGUCCCAGCCUCCUCGCUGGCGCCGGCUGGGCUACAUUCCGAGGGGACCGUCCCCUCGGUAAUGGCGAAUGGGAACCA [A42U C84A],0.655
18,GGCCGGCAUGGUCCCAGCCUCCUCGCUGGCGCCGGCUGGGCUACAUUCCGAGGGGACCGUCCCCUCGGUAAUGGCGAAUGGGAUCCA [A42U C84U],0.181
19,GGCCGGCAUGGUCCCAGCCUCCUCGCUGGCGCCGGCUGGGCUACAUUCCGAGGGGACCGUCCCCUCGGUAAUGGCGAAUGGGACGCA [A42U C85G],0.332
20,GGCCGGCAUGGUCCCAGCCUCCUCGCUGGCGCCGGCUGGGCUACAUUCCAAGGGGACCGUCCCCUCGGUAAUGGCGAAUGGGACCCA [A42U G50A],0.383
21,GGCCGGCAUGGUCCCAGCCUCCUCGCUGGCGCCGGCUGGGCUACAUUCCGAGAGGACCGUCCCCUCGGUAAUGGCGAAUGGGACCCA [A42U G53A],0.875
22,GGCCGGCAUGGUCCCAGCCUCCUCGCUGGCGCCGGCUGGGCUACAUUCCGAGGUGACCGUCCCCUCGGUAAUGGCGAAUGGGACCCA [A42U G54U],0.465

row,Variant,self-cleavage
1,GGCCGGCAUGGUCCCAGCCUCCUCGCUGGCGCCGGCUGGGCUACAUUCCGAGGGGACCGUCCCCUCAGUAAUGGCGAAUGGGACCCA [A42U G67A],0.47
2,GGCCGGCAUGGUCCCAGCCUCCUCGCUGGCGCCGGCUGGGCUACAUUCCGAGGGGACCGUCCCCUCCGUAAUGGCGAAUGGGACCCA [A42U G67C],0.415
3,GGCCGGCAUGGUCCCAGCCUCCUCGCUGGCGCCGGCUGGGCUACAUUCCGAGGGGACCGUCCCCUCUGUAAUGGCGAAUGGGACCCA [A42U G67U],0.346
4,GGCCGGCAUGGUCCCAGCCUCCUCGCUGGCGCCGGCUGGGCUACAUUCCGAGGGGACCGUCCCCUCGGUAAUUGCGAAUGGGACCCA [A42U G73U],0.378
5,GGCCGGCAUGGUCCCAGCCUCCUCGCUGGCGCCGGCUGGGCUACAUUCCGAGGGGACCGUCCCCUCGGUAAUGGCGAAUGUGACCCA [A42U G81U],0.145
6,GGCCGGCAUGGUCCCAGCCUCCUCGCUGGCGCCGGCUGGGCUACAUUCCGAGGGGACCGUCCCCUCGGUAAUGGCGAAUGGAACCCA [A42U G82A],0.157
7,GGCCGGCAUGGUCCCAGCCUCCUCGCUGGCGCCGGCUGGGCUACAAUCCGAGGGGACCGUCCCCUCGGUAAUGGCGAAUGGGACCCA [A42U U46A],0.443
8,GGCCGGCAUGGUCCCAGCCUCCUCGCUGGCGCCGGCUGGGCUACAUACCGAGGGGACCGUCCCCUCGGUAAUGGCGAAUGGGACCCA [A42U U47A],0.302
9,GGCCGGCAUGGUCCCAGCCUCCUCGCUGGCGCCGGCUGGGCUACAUCCCGAGGGGACCGUCCCCUCGGUAAUGGCGAAUGGGACCCA [A42U U47C],0.394
10,GGCCGGCAUGGUCCCAGCCUCCUCGCUGGCGCCGGCUGGGCUACAUUCCGAGGGGACCGGCCCCUCGGUAAUGGCGAAUGGGACCCA [A42U U60G],0.615
11,GGCCGGCAUGGUCCCAGCCUCCUCGCUGGCGCCGGCUGGGCUACAUUCCGAGGGGACCGUCCCCACGGUAAUGGCGAAUGGGACCCA [A42U U65A],0.434
12,GGCCGGCAUGGUCCCAGCCUCCUCGCUGGCGCCGGCUGGGCUACAUUCCGAGGGGACCGUCCCCUCGGAAAUGGCGAAUGGGACCCA [A42U U69A],0.364
13,GGCCGGCAUGGUCCCAGCCUCCUCGCUGGCGCCGGCUGGGCUACAUUCCGAGGGGACCGUCCCCUCGGCAAUGGCGAAUGGGACCCA [A42U U69C],0.437
14,GGCCGGCAUGGUCCCAGCCUCCUCGCUGGCGCCGGCUGGGCUACAUUCCGAGGGGACCGUCCCCUCGGGAAUGGCGAAUGGGACCCA [A42U U69G],0.519
15,GGCCGGCAUGGUCCCAGCCUCCUCGCUGGCGCCGGCUGGGCUACAUUCCGAGGGGACCGUCCCCUCGGUAAGGGCGAAUGGGACCCA [A42U U72G],0.322
16,GGCCGGCAUGGUCCCAGCCUCCUCGCUGGCGCCGGCUGGGCACCUUUCCGAGGGGACCGUCCCCUCGGUAAUGGCGAAUGGGACCCA [A43C A45U],0.554
17,GGCCGGCAUGGUCCCAGCCUCCUCGCUGGCGCCGGCUGGGCACCAUUCCGAGGGGCCCGUCCCCUCGGUAAUGGCGAAUGGGACCCA [A43C A56C],0.59
18,GGCCGGCAUGGUCCCAGCCUCCUCGCUGGCGCCGGCUGGGCACCAUUCCGAGGGGACCGUCCCCUCGGUUAUGGCGAAUGGGACCCA [A43C A70U],0.322
19,GGCCGGCAUGGUCCCAGCCUCCUCGCUGGCGCCGGCUGGGCACCAUUCCGAGGGGACCGUCCCCUCGGUACUGGCGAAUGGGACCCA [A43C A71C],0.534
20,GGCCGGCAUGGUCCCAGCCUCCUCGCUGGCGCCGGCUGGGCACCAUUCCGAGGGGACCGUCCCCUCGGUAUUGGCGAAUGGGACCCA [A43C A71U],0.322
21,GGCCGGCAUGGUCCCAGCCUCCUCGCUGGCGCCGGCUGGGCACCAUUCCGAGGGGACCGUCCCCUCGGUAAUGGCGGAUGGGACCCA [A43C A77G],0.317
22,GGCCGGCAUGGUCCCAGCCUCCUCGCUGGCGCCGGCUGGGCACAAUUCCGAGGGGACCGUCCCCUCGGUAAUGGCGAAUGGGACCCA [A43C C44A],0.665

row,Variant,self-cleavage
1,GGCCGGCAUGGUCCCAGCCUCCUCGCUGGCGCCGGCUGGGCACCAUUACGAGGGGACCGUCCCCUCGGUAAUGGCGAAUGGGACCCA [A43C C48A],0.386
2,GGCCGGCAUGGUCCCAGCCUCCUCGCUGGCGCCGGCUGGGCACCAUUCCGAGGGGAGCGUCCCCUCGGUAAUGGCGAAUGGGACCCA [A43C C57G],0.655
3,GGCCGGCAUGGUCCCAGCCUCCUCGCUGGCGCCGGCUGGGCACCAUUCCGAGGGGAUCGUCCCCUCGGUAAUGGCGAAUGGGACCCA [A43C C57U],0.491
4,GGCCGGCAUGGUCCCAGCCUCCUCGCUGGCGCCGGCUGGGCACCAUUCCGAGGGGACCGUCCACUCGGUAAUGGCGAAUGGGACCCA [A43C C63A],0.26
5,GGCCGGCAUGGUCCCAGCCUCCUCGCUGGCGCCGGCUGGGCACCAUUCCGAGGGGACCGUCCUCUCGGUAAUGGCGAAUGGGACCCA [A43C C63U],0.529
6,GGCCGGCAUGGUCCCAGCCUCCUCGCUGGCGCCGGCUGGGCACCAUUCCGAGGGGACCGUCCCGUCGGUAAUGGCGAAUGGGACCCA [A43C C64G],0.415
7,GGCCGGCAUGGUCCCAGCCUCCUCGCUGGCGCCGGCUGGGCACCAUUCCCAGGGGACCGUCCCCUCGGUAAUGGCGAAUGGGACCCA [A43C G50C],0.284
8,GGCCGGCAUGGUCCCAGCCUCCUCGCUGGCGCCGGCUGGGCACCAUUCCGAGGUGACCGUCCCCUCGGUAAUGGCGAAUGGGACCCA [A43C G54U],0.374
9,GGCCGGCAUGGUCCCAGCCUCCUCGCUGGCGCCGGCUGGGCACCAUUCCGAGGGCACCGUCCCCUCGGUAAUGGCGAAUGGGACCCA [A43C G55C],0.312
10,GGCCGGCAUGGUCCCAGCCUCCUCGCUGGCGCCGGCUGGGCACCAUUCCGAGGGGACCAUCCCCUCGGUAAUGGCGAAUGGGACCCA [A43C G59A],0.441
11,GGCCGGCAUGGUCCCAGCCUCCUCGCUGGCGCCGGCUGGGCACCAUUCCGAGGGGACCGUCCCCUCUGUAAUGGCGAAUGGGACCCA [A43C G67U],0.299
12,GGCCGGCAUGGUCCCAGCCUCCUCGCUGGCGCCGGCUGGGCACCAUUCCGAGGGGACCGUCCCCUCGAUAAUGGCGAAUGGGACCCA [A43C G68A],0.268
13,GGCCGGCAUGGUCCCAGCCUCCUCGCUGGCGCCGGCUGGGCACCAUUCCGAGGGGACCGUCCCCUCGGUAAUAGCGAAUGGGACCCA [A43C G73A],0.407
14,GGCCGGCAUGGUCCCAGCCUCCUCGCUGGCGCCGGCUGGGCACCAUUCCGAGGGGACCGUCCCCUCGGUAAUGGCGAAUGAGACCCA [A43C G81A],0.248
15,GGCCGGCAUGGUCCCAGCCUCCUCGCUGGCGCCGGCUGGGCACCAUUCCGAGGGGACCGUCCCCUCGGUAAUGGCGAAUGGCACCCA [A43C G82C],0
16,GGCCGGCAUGGUCCCAGCCUCCUCGCUGGCGCCGGCUGGGCACCAAUCCGAGGGGACCGUCCCCUCGGUAAUGGCGAAUGGGACCCA [A43C U46A],0.877
17,GGCCGGCAUGGUCCCAGCCUCCUCGCUGGCGCCGGCUGGGCACCACUCCGAGGGGACCGUCCCCUCGGUAAUGGCGAAUGGGACCCA [A43C U46C],0.435
18,GGCCGGCAUGGUCCCAGCCUCCUCGCUGGCGCCGGCUGGGCACCAUUCCGAGGGGACCGACCCCUCGGUAAUGGCGAAUGGGACCCA [A43C U60A],0.249
19,GGCCGGCAUGGUCCCAGCCUCCUCGCUGGCGCCGGCUGGGCACCAUUCCGAGGGGACCGGCCCCUCGGUAAUGGCGAAUGGGACCCA [A43C U60G],0.68
20,GGCCGGCAUGGUCCCAGCCUCCUCGCUGGCGCCGGCUGGGCACCAUUCCGAGGGGACCGUCCCCACGGUAAUGGCGAAUGGGACCCA [A43C U65A],0.623
